Data from patent publication EP4678648A1.

Molecular target: FcRn (Neonatal Fc Receptor)
Assay: SPR (BIAcore T200), FcRn amine-coupled on CM5 chip, antibody 1.96-31.25 nM flowed, pH 6.0 or 7.4 not given, 1:1 fit; Table 4 taken as the FcRn table

Trastuzumab (antibody)
Kd: 572 pM
